Test results reported in paper PMC10849721 (bioRxiv, 2024).

B1: Kv2.2 (natural protein)
chain: MAEKAPPGLNRKTSRSTLSLPPEPVDIIRSKTCSRRVKINVGGLNHEVLWRTLDRLPRTRLGKLRDCNTHESLLEVCDDYNLNENEYFFDRHPGAFTSILNFYRTGKLHMMEEMCALSFGQELDYWGIDEIYLESCCQARYHQKKEQMNEELRREAETMREREGEEFDNTCCPEKRKKLWDLLEKPNSSVAAKILAIVSILFIVLSTIALSLNTLPELQENDEFGQPSDNRKLAHVEAVCIAWFTMEYLLRFLSSPNKWKFFKGPLNVIDLLAILPYYVTIFLTESNKSVLQFQNVRRVVQIFRIMRILRILKLARHSTGLQSLGFTLRRSYNELGLLILFLAMGIMIFSSLVFFAEKDEDATKFTSIPASFWWATITMTTVGYGDIYPKTLLGKIVGGLCCIAGVLVIALPIPIIVNNFSEFYKEQKRQEKAIKRREALERAKRNGSIVSMNLKDAFARSMELIDVAVEKAGESANTKDSVDDNHLSPSRWKWARKALSETSSNKSYENKYQEVSQNDSHEHLNNTSSSSPQHLSAQKLEMLYNEITKTQPHSHPNPDCQEQPERPCVYEEEIEMEEVICPQEQLAVAQTEVIVDMKSTSSIDSFTSCATDFTETERSPLPPPSASHLQMKFPTDLPGTDEHQRARAPPFLTLSRDKGPAAREAAVDYAPIDITVNLDAGASHGPLQPDSASDSPKSSLKGSNPLKSRSLKVNFQENRASAPQTPPSTARPLPVTTADFPLTTPQHMSTILLEEALPQGQPPLLEADDSAHCQGPSKGFSPRFPKQKLFPFSSRERRSFTEIDTGEDEDFLDLQRSRPDKQADPSPNCLADKPGDARDSLREEGCVGSSSPQNTDHNCRQDIYQAVGEVKKDSSQEGYKMENHLFAPEIHSNPGDTGHCPTRETSM
B2: Kv5.1 (natural protein)
chain: MDASAEQSLPEPGSQDSVAGEDIEIVVNVGGVRQVLYGDLLSQYPETRLAELINCLAGGYDTIFSLCDDYDPGKREFYFDRDPDAFKCVIEVYYFGEVHMKKGICPICFKNEMDFWKVDLKFLDDCCKSHLSEKREELEEIARRVQLILDDLGVDAAEGRWRRCQKCVWKFLEKPESSCPARVVAVLSFLLILVSSVVMCMGTIPELQVVDSEGNRVEHPTLENVETACIGWFTLEYLLRLFSSPNKLHFALSFMNIVDVLAILPFYVSLTLTHLGARMMELTNVQQAVQALRIMRIARIFKLARHSSGLQTLTYALKRSFKELGLLLMYLAVGIFVFSALGYTMEQSHPETLFKSIPQSFWWAIITMTTVGYGDIYPKTTLGKLNAAISFLCGVIAIALPIHPIINNFVRYYNKQRVLETAAKHELELMELNSSSAEGKPGGSRSDLDTLPPEPAAREGPSWGSRLKLSHSDTFIPLLTEEKHHRTRLQSCK

Columns and labels:
[1] = molecular target: B2; assay: co-IP
[2] = molecular target: B1; assay: co-IP

B1
percent co-IPed, relative to the subunit's own IP [1]: 7.4%

B2
percent co-IPed, relative to the subunit's own IP [2]: 31%
